Measurements taken from article PMC10397247.

Legend:
Test in all cases: two-hybrid library CCNG1;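 also: natural log of median RNA to DNA barcode read ratio; higher means stronger binding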
4H3427-bA = target: T1, 4H3427-bA
T1 chain: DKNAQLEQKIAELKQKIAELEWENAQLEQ

4H607-bA = target: T2, 4H607-bA
T2 chain: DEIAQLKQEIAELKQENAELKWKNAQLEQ

4H953-bA = target: T3, 4H953-bA
T3 chain: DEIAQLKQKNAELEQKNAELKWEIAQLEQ

4H72-bA = target: T4, 4H72-bA
T4 chain: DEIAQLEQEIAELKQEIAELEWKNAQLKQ

P7bH1 = target: T5, P7bH1
T5 chain: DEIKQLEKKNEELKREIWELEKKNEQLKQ

4H967-bA = target: T6, 4H967-bA
T6 chain: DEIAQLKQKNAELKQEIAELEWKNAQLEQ

4H780-bA = target: T7, 4H780-bA
T7 chain: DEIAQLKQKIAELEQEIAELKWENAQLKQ

4H457-bA = target: T8, 4H457-bA
T8 chain: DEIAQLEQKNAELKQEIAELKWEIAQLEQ

4H4073-bA = target: T9, 4H4073-bA
T9 chain: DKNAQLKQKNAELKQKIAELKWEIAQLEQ

4H883-bA = target: T10, 4H883-bA
T10 chain: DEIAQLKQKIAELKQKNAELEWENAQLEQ

4H855-bA = target: T11, 4H855-bA
T11 chain: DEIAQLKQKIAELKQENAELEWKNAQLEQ

4H3855-bA = target: T12, 4H3855-bA
T12 chain: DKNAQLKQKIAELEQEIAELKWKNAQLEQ

4H568-bA = target: T13, 4H568-bA
T13 chain: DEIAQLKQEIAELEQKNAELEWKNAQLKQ

4H968-bA = target: T14, 4H968-bA
T14 chain: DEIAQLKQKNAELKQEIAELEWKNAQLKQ

4H754-bA = target: T15, 4H754-bA; details: mean of both orientations
T15 chain: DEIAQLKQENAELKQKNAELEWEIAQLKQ

4H683-bA = target: T16, 4H683-bA
T16 chain: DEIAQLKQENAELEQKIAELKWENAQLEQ

4H908-bA = target: T17, 4H908-bA
T17 chain: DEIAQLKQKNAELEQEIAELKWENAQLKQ

4H4001-bA = target: T18, 4H4001-bA
T18 chain: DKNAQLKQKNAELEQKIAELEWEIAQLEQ

4H3782-bA = target: T19, 4H3782-bA
T19 chain: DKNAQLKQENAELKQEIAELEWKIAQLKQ

4H454-bA = target: T20, 4H454-bA
T20 chain: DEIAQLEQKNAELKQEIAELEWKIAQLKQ

4H3926-bA = target: T21, 4H3926-bA
T21 chain: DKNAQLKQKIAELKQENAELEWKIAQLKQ

4H717-bA = target: T22, 4H717-bA
T22 chain: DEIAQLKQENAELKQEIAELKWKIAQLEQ

O15-bN = target: T23, O15-bN
T23 chain: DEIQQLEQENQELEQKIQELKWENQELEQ

4H346-bA = target: T24, 4H346-bA
T24 chain: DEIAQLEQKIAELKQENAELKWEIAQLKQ

4H918-bA = target: T25, 4H918-bA
T25 chain: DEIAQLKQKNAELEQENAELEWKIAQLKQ

4H575-bA = target: T26, 4H575-bA
T26 chain: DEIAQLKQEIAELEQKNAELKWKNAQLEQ

4H687-bA = target: T27, 4H687-bA
T27 chain: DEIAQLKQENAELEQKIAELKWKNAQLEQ

4H797-bA = target: T28, 4H797-bA
T28 chain: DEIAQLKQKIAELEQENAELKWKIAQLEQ

B1: 4H3427-bA (peptide)
chain: DKNAQLEQKIAELKQKIAELEWENAQLEQ
B1 gave an interaction score (4H3427-bA) of 0.0593, an interaction score (4H607-bA) of -0.868 and an interaction score (4H953-bA) of -1.25. It also gave an interaction score (4H72-bA) of 0.449, an interaction score (P7bH1) of -0.632 and an interaction score (4H967-bA) of -1.02. The interaction score (4H780-bA) was -1.09, the interaction score (4H457-bA) was -1.11 and the interaction score (4H4073-bA) was 0.792. The interaction score (4H883-bA) was -0.625, the interaction score (4H855-bA) was -1.16 and the interaction score (4H3855-bA) was -0.947. For the same binder, the interaction score (4H568-bA) was 0.738, the interaction score (4H968-bA) was -0.904 and the interaction score (4H754-bA) was -0.767. It also gave an interaction score (4H683-bA) of -0.996, an interaction score (4H908-bA) of -0.823 and an interaction score (4H4001-bA) of -0.314. It also gave an interaction score (4H3782-bA) of -0.499, an interaction score (4H454-bA) of -0.617 and an interaction score (4H3926-bA) of -0.817. For the same binder, the interaction score (4H717-bA) was -1.4, the interaction score (O15-bN) was -0.0232 and the interaction score (4H346-bA) was -1.15. It also gave an interaction score (4H918-bA) of -0.926, an interaction score (4H575-bA) of 0.0418 and an interaction score (4H687-bA) of -1.79. The interaction score (4H797-bA) was -0.827.
